Here are results for six molecules from PMC3627575.

For data set [1], the target named is T1, vIRF-1 DBD (vIRF-1 88-196) (Kaposi's sarcoma-associated herpesvirus …, UniProt F5HF68 88-196). The experiment in a line: thermal stability shift assay.
Data set [2] concerns the target T1, vIRF-1 DBD (vIRF-1 88-196). The data set is described as follows: X-ray crystallography.

T1 sequence (F5HF68 88-196): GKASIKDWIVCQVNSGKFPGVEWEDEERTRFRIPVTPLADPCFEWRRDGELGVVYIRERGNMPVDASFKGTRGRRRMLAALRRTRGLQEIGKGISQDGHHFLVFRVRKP

B1: S0_x2 (dsDNA)
DNA 1: AGCGTCGAGACGCGCGTCGAGACGC
DNA 2: TGCGTCTCGACGCGCGTCTCGACGC
Regarding B1, the binding result in data set [1] is “binds”.

B2: dsS0mm (dsDNA)
DNA 1: GCGTCGAGACGC
DNA 2: GCGTCGAGACGC
On to B2, for which the binding result in data set [2] was “binds”.

B3: N25 (dsDNA)
DNA 1: TATACAAACCCCTTACCAATATCATA
DNA 2: ATATGATATTGGTAAGGGGTTTGTAT
Regarding B3, the binding result in data set [1] was “binds”.

B4: PRDIII-I (dsDNA)
DNA 1: GAGGAAAACTGAAAGGGAACTGAAA
DNA 2: TTTCAGTTCCCTTTCAGTTTTCCTC
Regarding B4, in data set [1], the binding result was “binds”.

B5: v2 (dsDNA)
DNA 1: ATAACTGGGAGGCGACGCTGGCG
DNA 2: TCGCCAGCGTCGCCTCCCAGTTA
As to B5, the binding result in data set [1] is recorded as “binds”.

B6: v1 (dsDNA)
DNA 1: AGGCACGCGTCCAGGCAACCGGG
DNA 2: TCCCGGTTGCCTGGACGCGTGCC
In the case of B6, the binding result in data set [1] is “binds”.
